Test results from patent US20220064294A1 (ARCUS BIOSCIENCES, published 2022).

T1: human TIGIT, full length, on cells (human, UniProt Q495A1 22-244)
T1 construct: also called hTIGIT; hTIGIT-CHO
T1 sequence: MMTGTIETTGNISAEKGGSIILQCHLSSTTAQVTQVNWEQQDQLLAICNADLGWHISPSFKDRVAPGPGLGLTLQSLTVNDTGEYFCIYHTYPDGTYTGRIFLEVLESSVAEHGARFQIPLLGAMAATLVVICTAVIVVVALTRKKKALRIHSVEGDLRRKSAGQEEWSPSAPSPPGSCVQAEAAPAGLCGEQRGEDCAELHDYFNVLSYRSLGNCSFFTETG

T2: cTIGIT-His (cynomolgus monkey)
T2 construct: also called His-tagged cyno TIGIT protein extracellular domain; soluble cTIGIT-His
T2 chain: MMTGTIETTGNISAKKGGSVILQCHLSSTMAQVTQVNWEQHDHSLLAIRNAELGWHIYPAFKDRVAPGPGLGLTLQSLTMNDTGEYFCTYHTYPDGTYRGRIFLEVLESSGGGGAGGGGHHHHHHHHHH

T3: hTIGIT-His (human)
T3 construct: also called His-tagged human TIGIT protein extracellular domain; soluble hTIGIT-His
T3 chain: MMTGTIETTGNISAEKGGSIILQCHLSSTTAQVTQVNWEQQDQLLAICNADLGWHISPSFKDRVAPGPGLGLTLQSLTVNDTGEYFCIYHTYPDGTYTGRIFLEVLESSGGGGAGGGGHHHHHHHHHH


Experiments:
[1] = biological target: T4, cynomolgus monkey TIGIT, full length, on cells (cynomolgus monkey); experiment: flow cytometry on CHO-K1 cells expressing cyno TIGIT
T4 construct: Whole entry of 312 amino acids; also called cyno TIGIT; cTIGIT
Protocol: (§1) These clones were further expanded, and antibodies were purified using a Protein G column. These purified antibodies were tested for binding to human and cyno TIGIT expressed on cell surface by flow cytometry. Stable CHO-K1 cell lines expressing full length human TIGIT clone 2A7 (Swiss-Prot Q495A1; SEQ ID NO: 80) or full length cyno TIGIT clone C10 (Swiss-Prot A0A2K5UW92; SEQ ID NO: 84) were developed. For the flow assay, cells were collected and incubated in 100 μL of HBSS buffer in the presence (or absence) of various concentrations of antibodies for 1 hr at 4° C. After washing with HBSS, antibody binding on cells was detected with 2 μg/mL of Alexa488-labeled goat anti-mouse IgG antibody (ThermoFisher Scientific, Cat #A-11001) for 30 min at 4° C. Cells were then washed and resuspended in PBS and subjected to flow cytometry using an Attune NxT flow cytometer (ThermoFisher Scientific, Waltham, Mass.). The geometric mean of the fluorescence intensity was obtained for the whole single cell population. Antibodies capable of binding to both human and cyno TIGIT expressed on cell surface were further tested for their blocking activity against recombinant human CD155 binding to human TIGIT on the surface of CHO cells. CHO-hTIGIT cells (10⁵ cells) were incubated with 2.5 μg/mL hCD155-Fc protein in the presence of various concentrations of antibody at room temperature for 1 hr. […] Cells were then washed and subjected to flow cytometry analysis.

[2] = biological target: T1, human TIGIT, full length, on cells; experiment: flow cytometry on CHO-K1 cells expressing human TIGIT
Protocol: as §1

[3] = biological target: T1, human TIGIT, full length, on cells; experiment: flow cytometry, inhibition of hCD155-Fc binding to CHO-hTIGIT cells
Protocol: as §1

cTIGIT-His = biological target: T2, cTIGIT-His; experiment: SPR, Biacore 8K, Fab-SASA supernatant captured on BSA chip, cTIGIT-His as analyte
Text: (§2) Oligonucleotides were designed and synthesized as Fab fragments with human IgG1/kappa constant domains for the two VH and two VL grafted human acceptors and inserted into a vector system for high throughput screening of expression levels and biophysical properties, without the need for protein purification (Zhang & Hirama, Patent Application Publication US 2012/0178110). All four combinations of VH1 (SEQ ID NO: 76) or VH2 (SEQ ID NO: 78) with VL1 (SEQ ID NO: 79) or VL2 (SEQ ID NO: 77) (FIGS. 1J-1M) were screened along with a chimera Fab mVH+mVL constructed from the mouse 24F8VH (SEQ ID NO: 5) & 24F8VL (SEQ ID NO: 6) domains and human IgG1/kappa Fab constant domains. Supernatants of the Fabs, secreted as a SASA (single-domain antibody against serum albumin) fusion proteins were analyzed by surface plasmon resonance (SPR) using a Biacore 8K instrument with Fab capture using an BSA coated chip and soluble His-tagged TIGIT as the analyte. The kinetic binding data for human and cyno TIGIT are shown in Table 9 for the five Fab fragments.

hTIGIT-His = biological target: T3, hTIGIT-His; experiment: SPR, Biacore 8K, Fab-SASA supernatant captured on BSA chip, hTIGIT-His as analyte
Text: as §2

| Binder | EC50 [1] [nM] | EC50 [2] [nM] | IC50 [3] [nM] | Kd (cTIGIT-His) [nM] | koff (cTIGIT-His) [s⁻¹] | kon (cTIGIT-His) [M⁻¹ s⁻¹] | Kd (hTIGIT-His) [nM] | koff (hTIGIT-His) [s⁻¹] | kon (hTIGIT-His) [M⁻¹ s⁻¹] |
| --- | --- | --- | --- | --- | --- | --- | --- | --- | --- |
| 21F8 (antibody, V domains shown, Mouse monoclonal antibody purified from hybridoma on Protein G; also called mAb 21F8; mouse anti-TIGIT clone 21F8) VH: DVQLQESGPGLVKPSQSLSLTCTVTGYSITSDYAWNWIRQFPGNKLEWMGYISYSGSTSYNPSLKSRISITRDTSKNQFFLQLNSVTTEDTATYYCARFMITTFAMDYWGQGTAVTVSS VL: DIVMTQSHKFMSTSVGDRVSITCKASQHVSTAVAWYQQKPGQSPKLLIYSAPYRYTGVPDRFTGSGSGTDFTFTISSVQAEDLAVYYCQQHYNTLWTFGGGTKLEIK | 1.79 | 0.952 | 1.67 |  |  |  |  |  |  |
| Hu24F8.1 Fab (Fab, V domains shown, Fab with human IgG1/kappa constant domains, secreted as a SASA fusion protein and tested as supernatant; also called VH1 + VL2) VH: QVQLQESGPGLVKPSETLSLTCAVYGYSITSGYSWHWIRQPPGKGLEWIGYVHYSGSTNYNPSLKSRVTISVDTSKNQFSLKLSSVTAADTAVYYCARMDYGNYGGAMDYWGQGTLVTVSS VL: EIVMTQSPATLSVSPGERATLSCKASQDVRTAVAWYQQKPGQAPRLLIYSASYRYTGIPARFSGSGSGTEFTLTISSLQSEDFAVYYCQQYYSTQWTFGGGTKVEIK |  |  |  | 1.26 | 0.0014 | 1.11e+06 | 0.0361 | 0.000111 | 3.08e+06 |
| Hu24F8.3 Fab (Fab, V domains shown, Fab with human IgG1/kappa constant domains, secreted as a SASA fusion protein and tested as supernatant; also called VH2 + VL1) VH: QVQLQESGPGLVKPSGTLSLTCAVSGYSITSGYSWHWVRQPPGKGLEWIGYVHYSGSTNYNPSLKSRVTISVDKSKNQFSLKLSSVTAADTAVYYCARMDYGNYGGAMDYWGQGTLVTVSS VL: DIQMTQSPSSLSASVGDRVTITCKASQDVRTAVAWYQQKPGKAPKLLIYSASYRYTGVPSRFSGSGSGTDFTFTISSLQPEDIATYYCQQYYSTQWTFGGGTKLEIK |  |  |  | 6 | 0.00585 | 974000 | 0.242 | 0.000481 | 1.99e+06 |
| Hu24F8.2 Fab (Fab, V domains shown, Fab with human IgG1/kappa constant domains, secreted as a SASA fusion protein and tested as supernatant; Not the same preparation as Fab24F8 (papain fragment); also called VH2 + VL2) VH: QVQLQESGPGLVKPSGTLSLTCAVSGYSITSGYSWHWVRQPPGKGLEWIGYVHYSGSTNYNPSLKSRVTISVDKSKNQFSLKLSSVTAADTAVYYCARMDYGNYGGAMDYWGQGTLVTVSS VL: EIVMTQSPATLSVSPGERATLSCKASQDVRTAVAWYQQKPGQAPRLLIYSASYRYTGIPARFSGSGSGTEFTLTISSLQSEDFAVYYCQQYYSTQWTFGGGTKVEIK |  |  |  | 1.09 | 0.000808 | 742000 | 0.045 | 9.39e-05 | 2.08e+06 |

More lines, now with the values ahead:

| EC50 [1] [nM] | EC50 [2] [nM] | IC50 [3] [nM] | Kd (cTIGIT-His) [nM] | koff (cTIGIT-His) [s⁻¹] | kon (cTIGIT-His) [M⁻¹ s⁻¹] | Kd (hTIGIT-His) [nM] | koff (hTIGIT-His) [s⁻¹] | kon (hTIGIT-His) [M⁻¹ s⁻¹] | Binder |
| --- | --- | --- | --- | --- | --- | --- | --- | --- | --- |
| 1.85 | 1.31 | 1.79 |  |  |  |  |  |  | 24F8 (antibody, V domains shown, Mouse monoclonal antibody purified from hybridoma on Protein G; also called mAb 24F8; mouse anti-TIGIT clone 24F8) VH: DVQLQESGPDLVKPSQSLSLTCTVTGYSITSGYSWHWIRQFPGNKLDWMGYVHYSGSTNYNPSLKSRISITRDTSKNQFFLQLNSVTTEDTATFYCARMDYGNYGGAMDYWGQGTSVTVSS VL: EIVMTQSHKFMSTSVGDRVSITCKASQDVRTAVAWYQQKPGQSPKLLIYSASYRYTGVPDRFTGSGSGTDFTFTISSVQAEDLAVYYCQQYYSTQWTFGGGTKLEIK |
|  |  |  | 9.81 | 0.0133 | 1.35e+06 | 0.28 | 0.000855 | 3.05e+06 | Hu24F8.4 Fab (Fab, V domains shown, Fab with human IgG1/kappa constant domains, secreted as a SASA fusion protein and tested as supernatant; also called VH1 + VL1) VH: QVQLQESGPGLVKPSETLSLTCAVYGYSITSGYSWHWIRQPPGKGLEWIGYVHYSGSTNYNPSLKSRVTISVDTSKNQFSLKLSSVTAADTAVYYCARMDYGNYGGAMDYWGQGTLVTVSS VL: DIQMTQSPSSLSASVGDRVTITCKASQDVRTAVAWYQQKPGKAPKLLIYSASYRYTGVPSRFSGSGSGTDFTFTISSLQPEDIATYYCQQYYSTQWTFGGGTKLEIK |
| 1.63 | 0.704 | 1.46 |  |  |  |  |  |  | 5J24 (antibody, V domains shown, Mouse monoclonal antibody purified from hybridoma on Protein G; also called mAb 5J24; mouse anti-TIGIT clone 5J24) VH: QVQLQQSGAELVRPGTSVKMSCKAAGYTFTNHWIGWVKQRPGHGLEWIGDIYPGGGYTNYNEKFKGKATLTADTSSSTAYMYLSSLTSEDSAIYYCARSYGYDLYAMDYWGQGTSVTVSS VL: DIQMTQSPSSLSASLGERVSLTCRASQEISGYLSWLQQKPDGTIKRLIYAASTLGSGVPKRFSGSRSGSDYSLTISSLESEDFADYYCLQYDSYPFTFGAGTKLELK |
